B1: Antibody No. 8 (antibody, V domains shown)
VH: QVQLVESGAEVKKPGASVKVSCKASGYTFTSYGISWVRQAPGQGLEWMGWISAYNGNTNYAQKLQGRVTMTTDTSTSTAYMELRSLRSDDTAVYYCARGGSSSNYWGQGTLVTVSS
VL: QSALTQPASVSGSPGQSITISCTGTSSDVGGYNYVSWYQQHPGKAPKLMIYEVSNRPSGVSNRFSGSKSGNTASLTISGLQAEDEADYYCSSYTSSSTLVFGGGTKLTVL
notes: human IgG1, lambda or kappa light chain; also called 448-E03
B2: Antibody No. 6 (antibody, V domains shown)
VH: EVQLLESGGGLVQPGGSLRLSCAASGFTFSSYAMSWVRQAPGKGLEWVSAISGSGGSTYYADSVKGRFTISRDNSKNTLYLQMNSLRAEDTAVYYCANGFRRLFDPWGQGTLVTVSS
VL: QSALTQPASVSGSPGQSITISCTGTSSDVGGYNYVSWYQQHPGKAPKLMIYDVSNRPSGVSNRFSGSKSGNTASLTISGLQAEDEADYYCSSYTSSSTHVVFGGGTKLTVL
notes: human IgG1, lambda or kappa light chain; also called 448-B03
B3: Antibody No. 9 (antibody, V domains shown)
VH: QVQLVQSGGGVVQPGRSLRLSCAASGFTFSSYGMHWVRQAPGKGLEWVAVISYDGSNKYYADSVKGRFTISRDNSKNTLYLQMNSLRAEDTAVYYCANNPSSGADYWGQGTLVTVSS
VL: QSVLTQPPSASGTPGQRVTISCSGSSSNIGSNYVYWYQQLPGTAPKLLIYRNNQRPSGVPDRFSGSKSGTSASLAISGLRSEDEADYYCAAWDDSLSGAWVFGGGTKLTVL
notes: human IgG1, lambda or kappa light chain; also called 448-G01
B4: Antibody No. 7 (antibody, V domains shown)
VH: QVQLVQSGGSVVQPGRSLRLSCAASGFTFSSYAMHWVRQAPGKGLEWVAVISYDGSNKYYADSVKGRFTISRDNSKNTLYLQMNSLRAEDTAVYYCARFASIAARPFDYWGQGTLVTVSS
VL: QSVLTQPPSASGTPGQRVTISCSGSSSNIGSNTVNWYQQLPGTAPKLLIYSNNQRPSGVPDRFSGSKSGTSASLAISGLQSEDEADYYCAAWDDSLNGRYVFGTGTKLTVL
notes: human IgG1, lambda or kappa light chain; also called 448-D02
B5: Antibody No. 5 (antibody, V domains shown)
VH: QVQLVESGGGVVQPGRSLRLSCAASGFTFSSYAMHWVRQAPGKGLEWVAVISYDGSNKYYADSVKGRFTISRDNSKNTLYLQMNSLRAEDTAVYYCARIAAAGPFDYWGQGTLVTVSS
VL: SYVLTQPPSVSEAPRQRVTISCSGSSSNIGNNAVNWYQQLPGKAPKLLIYYDDLLPSGVSDRFSGSKSGTSASLAISGLQSEDEADYYCAAWDDSLNGVVFGGGTKLTVL
notes: human IgG1, lambda or kappa light chain; also called 438-G12; antibody #5
B6: Antibody No. 11 (antibody, V domains shown)
VH: QVQLVQSGAEVKKPGASVKVSCKASGYTFTSYGISWVRQAPGQGLEWMGWISAYNGNTNYAQKLQGRVTMTTDTSTSTAYMELRSLRSDDTAVYYCASLYCSGGSCYSALDPWGQGTLVTVSS
VL: QSVLTQPPSVSGAPGQRVTISCTGSSSNIGAGYDVHWYQQLPGTAPKLLIYGNSNRPSGVPDRFSGSKSGTSASLAITGLQAEDEADYYCQSYDSSLRYVVFGGGTKVTVL
notes: human IgG1, lambda or kappa light chain; also called 447-D12
B7: Antibody No. 10 (antibody, V domains shown)
VH: EVQLVQSGAEVKKPGSSVKISCKASGGTFSSYAISWVRQAPGQGLEWMGGIIPIFGTANYAQKFQGRVTITADESTSTAYMELSSLRSEDTAVYYCARSHSSGWEWWGQGTLVTVSS
VL: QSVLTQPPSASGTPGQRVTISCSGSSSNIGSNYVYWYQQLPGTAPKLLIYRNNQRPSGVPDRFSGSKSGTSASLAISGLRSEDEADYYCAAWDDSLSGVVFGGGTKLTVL
notes: human IgG1, lambda or kappa light chain; also called 439-E10

Target: T1, Perilipin epitope 1 peptide NKGLTLLDGDLPEQE (SEQ ID NO. 330) (human, Biotin-PEG Spacer and GGSGGS Linker (SEQ ID NO. 438) at the N-terminus, or Biotin-PEG Spacer and AAAAA Linker (SEQ ID NO. 439) at the C-terminus)
T1 construct: Two biotinylated variants were used for selection and ELISA; On the peptide array it stood without biotin; also called target peptide
T1 peptide: NKGLTLLDGDLPEQE
Test: phage display selection and ELISA on biotinylated target peptide
B1: binds. B2: binds. B3: binds. B4: binds. B5: binds.

Target: T2, Perilipin epitope 2 peptide QYPPEKIASELKDTI (SEQ ID NO. 331) (human, Biotin-PEG Spacer and GGSGGS Linker (SEQ ID NO. 438) at the N-terminus, or Biotin-PEG Spacer and AAAAA Linker (SEQ ID NO. 439) at the C-terminus)
T2 construct: Two biotinylated variants were used for selection and ELISA; On the peptide array it stood without biotin; also called target peptide
T2 peptide: QYPPEKIASELKDTI
Test: as above
B6: binds. B7: binds.

Reference: US20220153822A1 (ALYTAS THERAPEUTICS, published 2022)
